From patent US9101618B2, “Method for treating and/or preventing neurodegenerative disease by adiponectin receptor agonist” (TOKYO METROPOLITAN INSTITUTE OF MEDICAL SCIENCE, priority 2011, dated 2015)

How the values were obtained:
[1] = biological target: T1, human α (alpha)-synuclein recombinant protein (Homo sapiens, UniProt P37840); experiment: Protein-protein interaction of α-synuclein and adiponectin in test tube (western blotting); type: binding; conditions: 48 hours, 37° C.
T1 construct: made in house
Procedure: Human adiponectin recombinant protein (ProSpec, IWAI CHEMICALS COMPANY LTD.) 0.5 μg and human α (alpha)-synuclein recombinant protein (Hashimoto et al., Brain Res. 799:301 (1998)) 1.0 μg were incubated for 48 hours in 100 mM sodium acetate solution at 37° C., 500 rpm (Thermomixer, Eppendorf Co., Ltd.). Later, an analysis via western blotting was performed in accordance with procedures similar to those in example 1 through example 6. Each sample was dissolved in 1× sample buffer without 2ME, and heated at 95° C. for 10 min. With regard to a control experiment, incubation was performed at room temperature. Particularly, instead of α (alpha)-synuclein, BSA (1.0 μg) was incubated with adiponectin.

[2] = system: B103 neuroblastoma cells; experiment: Cytotoxicity due to the addition of adiponectin; type: cell-based, rat; conditions: 1 μg/mL
Procedure: The B103 neuroblastoma cells (α (alpha)S) and the B103 neuroblastoma cells (vector) were prepared and cultured in accordance with the procedures described in example 3. The B103 neuroblastoma cells (α (alpha)S) and the B103 neuroblastoma cells (vector) were inoculated on the 6-well plate and cultured to a state of about 80-90% confluence. After washing with PBS, the aforementioned cells were further cultured for 24 hours in a test medium prepared by adding recombinant human adiponectin (1 μg/mL, trimer, PROSPEC) to a serum-free medium. As a control, there was used a control medium prepared by adding thereto PBS instead of recombinant human adiponectin. After culturing, there were prepared the TBS soluble fraction, the SDS soluble fraction and the formic acid soluble fraction in accordance with the procedures described in example 1. Further, western blotting was performed in accordance with the procedures described in example 1. In order to evaluate α (alpha)-synuclein aggregation, an anti-α (alpha)-synuclein mouse monoclonal antibody (syn-1, Nippon Becton Dickinson Company, Ltd) was used as a primary antibody when performing western blotting, the anti-α (alpha)-synuclein mouse monoclonal antibody being diluted appropriately before use. Additionally, an HRP labeled anti-mouse IgG antibody (DAKO) was used as a secondary antibody, the HRP labeled anti-mouse IgG antibody being diluted appropriately before use.
The B103 neuroblastoma cells (α (alpha)S) and the B103 neuroblastoma cells (vector) were inoculated on a 5 cm dish and cultured to a state of about 80-90% confluence. Later, the aforementioned cells were washed with PBS, and then cultured in a serum-free medium for four hours. After washing with PBS, the cells were then cultured in a test medium (adiponectin-added group) prepared by adding recombinant human adiponectin (1_μg/mL, trimer, PROSPEC) to a serum-free medium. As a control, there was used a control medium (adiponectin non-added group) prepared by adding thereto PBS instead of recombinant human adiponectin. […]

[3] = system: B103 neuroblastoma cells (α (alpha)S); experiment: Immunoprecipitation with anti-α-synuclein antibody, detection of phosphorylated tau (Ser 202); type: cell-based, rat; conditions: 1 μg/mL, 24 hours, NP40 soluble fraction
Procedure: Immunoprecipitation was performed by standard procedures known to those skilled in the art. Briefly, the B103 neuroblastoma cells (α (alpha)S) were inoculated on a 10 cm dish, and were cultured to a state of about 80-90% confluence. The cells were then washed with PBS, followed by being cultured in a test medium (adiponectin-added group) prepared by adding recombinant human adiponectin (1 μg/mL, trimer, PROSPEC) to a serum-free medium. As a control, there was used a control medium (adiponectin non-added group) prepared by adding thereto PBS instead of recombinant human adiponectin. After being cultured for 24 hours, the cells were then lysed with a NP40 lysis solution (1% IGEPAL CA630 (Sigma-Aldrich Japan Inc), 150 mM NaCl, 50 mM Tris-HCl (pH 8.0), a protease inhibitor (NACALAI TESQUE, INC.)). Supernatants were collected after performing centrifugation at 100,000×g for 30 min. The supernatants thus collected were used as NP40 soluble fractions when performing immunoprecipitation. Immunoprecipitation was performed using Immunoprecipitation Starter Pack (GE Healthcare Japan Corporation) in accordance with a manual provided by the manufacturer and vender. […]

[4] = system: tau; experiment: Adiponectin addition (3): tau phosphorylation (western blotting); type: cell-based, rat; conditions: 1 μg/mL, 0, 1 and 2 hour(s), B103 neuroblastoma cells (αS)
Procedure: The B103 neuroblastoma cells (α (alpha)S) and the B103 neuroblastoma cells (vector) were inoculated on a 5 cm dish and cultured to a state of about 80-90% confluence. Later, the aforementioned cells were washed with PBS, and then cultured in a serum-free medium for four hours. After washing with PBS, the cells were then cultured in a test medium (adiponectin-added group) prepared by adding recombinant human adiponectin (1_μg/mL, trimer, PROSPEC) to a serum-free medium. As a control, there was used a control medium (adiponectin non-added group) prepared by adding thereto PBS instead of recombinant human adiponectin. A culture time was 0, 10 and 30 min when evaluating signal transduction, 0, 1 and 2 hour(s) when evaluating tau phosphorylation. The cells collected were lysed with a cell lysis solution (1% TritonX-100, 1% Nonidet P-40, 50 mM HEPES, 150 mM NaCl, 10% glycerol, 1.5 mM MgCl2, 1 mM EGTA, 100_mM sodium fluoride, a protease inhibitor (NACALAI TESQUE, INC.)). Supernatants were collected after performing centrifugation at 100,000×g for 30 min, and were used as surfactant soluble fractions when performing western blotting. Here, western blotting was performed in accordance with the procedures described in example 1. […]

B1: adiponectin: recombinant human adiponectin (trimer, PROSPEC) added to serum-free medium at 1 μg/mL (protein, UniProt Q15848 19-244, looked up)
Adiponectin: ETTTQGPGVLLPLPKGACTGWMAGIPGHPGHNGAPGRDGRDGTPGEKGEKGDPGLIGPKGDIGETGVPGAEGPRGFPGIQGRKGEPGEGAYVYRSAFSVGLETYVTIPNMPIRFTKIFYNQQNHYDGSTGKFHCNIPGLYYFAYHITVYMKDVKVSLFKKDKAMLFTYDQYQENNVDQASGSVLLHLEVGDQVWLQVYGEGERNGLYADNDNDSTFTGFLLYHDTN
dimer of adiponectin ([1]; 0.5 μg adiponectin incubated with 1.0 μg α-synuclein): further increased
adiponectin aggregation ([1]; in the presence of α-synuclein, densitometer values of aggregate range): significantly promoted
cytotoxicity ([2]; 24 hours (α-synuclein aggregation experiment)): not particularly observed
cytotoxicity ([2]; signal transduction experiment): not particularly observed
cytotoxicity ([2]; tau phosphorylation experiment): not particularly observed
coprecipitation of phosphorylated tau with α-synuclein [3]: did not coprecipitate
amount of phosphorylated tau (Ser 202, Ser 396) [4]: decreased
